Measured values published in patent publication US8936806B2, “Periostin induces proliferation of cardiomyocytes and promotes cardiac regeneration” (Children's Medical Center Corporation, priority 2007, dated 2015).

Assays:
[1] = test system: primary neonatal rat ventricular cardiomyocytes; experiment: DNA synthesis, mitosis and cytokinesis in primary neonatal rat ventricular cardiomyocytes; assay type: cell-based
Excerpt: Primary neonatal rat ventricular cardiomyocytes were isolated using the Neomyts kit (Cellutron, Highland Park, N.J.), seeded at a density of 10^5 cells/cm^2 onto gelatin-coated cover slips, stimulated for 3 days, and labeled with BrdU for the terminal 2 days. Primary adult ventricular cardiomyocytes were isolated from male (300 gm) Wistar rats (Charles River Laboratories) and maintained as described (Engel, F. B. et al. p38 MAP kinase inhibition enables proliferation of adult mammalian cardiomyocytes. Genes Dev 19, 1175-87 (2005)). Adult cardiomyocytes were stimulated daily for 9 days and labeled with 30 μM BrdU for the terminal 3 days. Cardiomyocytes were stimulated with periostin (500 ng/mL) and FGF (100 ng/mL). Inhibiting antibodies were added at a concentration of 10 μg/mL, cRGD at 10 μM, U0126 at 10 μM, PD98059 at 1 μM, LY294002 at 10 μM, and Wortmannin at 0.1 μM 30 min prior to stimulation. The vehicle used to dissolve factors or chemicals was added to unstimulated samples, which were then processed together with the test samples.
DNA-synthesis was analyzed by visualization of BrdU uptake and cytokinesis was determined by detection of the cleavage furrow and the midbody with an antibody against aurora B kinase as described (Engel, F. B. et al. p38 MAP kinase inhibition enables proliferation of adult mammalian cardiomyocytes. Genes Dev 19, 1175-87 (2005)). Signals were visualized with secondary antibodies conjugated to Alexa 488, Alexa 546, Alexa 594, and Alexa 647 (Invitrogen). Nuclei were visualized with 4′,6′-diamidino-2-phenylindole (DAPI, Invitrogen). For image acquisition, the value for γ was set at 1 and the lookup table settings were linear.

[2] = test system: primary adult rat ventricular cardiomyocytes; experiment: DNA synthesis (BrdU uptake, immunofluorescence) in primary adult rat ventricular cardiomyocytes; assay type: cell-based
Excerpt: Primary neonatal rat ventricular cardiomyocytes were isolated using the Neomyts kit (Cellutron, Highland Park, N.J.), seeded at a density of 10^5 cells/cm^2 onto gelatin-coated cover slips, stimulated for 3 days, and labeled with BrdU for the terminal 2 days. Primary adult ventricular cardiomyocytes were isolated from male (300 gm) Wistar rats (Charles River Laboratories) and maintained as described (Engel, F. B. et al. p38 MAP kinase inhibition enables proliferation of adult mammalian cardiomyocytes. Genes Dev 19, 1175-87 (2005)). Adult cardiomyocytes were stimulated daily for 9 days and labeled with 30 μM BrdU for the terminal 3 days. Cardiomyocytes were stimulated with periostin (500 ng/mL) and FGF (100 ng/mL). […] The vehicle used to dissolve factors or chemicals was added to unstimulated samples, which were then processed together with the test samples. DNA-synthesis was analyzed by visualization of BrdU uptake and cytokinesis was determined by detection of the cleavage furrow and the midbody with an antibody against aurora B kinase as described (Engel, F. B. et al. p38 MAP kinase inhibition enables proliferation of adult mammalian cardiomyocytes. Genes Dev 19, 1175-87 (2005)). Signals were visualized with secondary antibodies conjugated to Alexa 488, Alexa 546, Alexa 594, and Alexa 647 (Invitrogen). […] For image acquisition, the value for γ was set at 1 and the lookup table settings were linear. Primary adult rat ventricular cardiomyocytes were grown on gridded cover slips (Electron Microscopy Services, Ft. Washington, Pa.) and imaged in phase contrast at 10× magnification. Cardiomyocytes were transduced with an adenovirus leading to nuclear expression of histone2B-GFP (Shi, Q. & King, R. W. Nature 437, 1038-42 (2005)) under control of the chicken troponin T promoter ([…]. Am J Physiol Cell Physiol 286, […]-64 (2004)). Nuclei were visualized at 10× magnification with a mercury-arc lamp dimmed to 1.5% with a neutral density filter. […] Images of BrdU-positive cardiomyocytes were matched with the corresponding images from before stimulation. For quantification, differentiated cardiomyocytes were defined as striated rod-shaped structures with length/width ratio>1.5.

[3] = Diffusion range and presence of recombinant periostin in myocardium after epicardial Gelfoam patch; assay type: in vivo, rat; details: after 12 weeks
Description: To develop a long-term delivery system for recombinant periostin, we determined if recombinant periostin associated with Gelfoam, a biodegradable biological scaffold. Gelfoam patches (Pfizer, New York, N.Y.) of 1 cm^2 diameter were loaded with 100 μg of recombinant human periostin and incubated with 1 mL of PBS at 37° C. with continuous agitation for 10 weeks. The supernatant was replaced every 2 weeks and the concentration of recombinant periostin in the supernatant was determined by Western blot using a polyclonal antibody directed against human periostin (Abeam). The diffusion range of recombinant periostin in myocardium was determined with a polyclonal antibody directed against human periostin followed by immunofluorescence microscopy. Presence of periostin in the myocardium was determined by Western blot using a polyclonal antibody directed against human periostin (Abeam).
Adult male Sprague-Dawley rats (300 gm, Charles River Laboratories) underwent experimental myocardial infarction as described (del Monte, F. et al. Abrogation of ventricular arrhythmias in a model of ischemia and reperfusion by targeting myocardial calcium cycling. Proc Natl Acad Sci USA 101, 5622-7 (2004)). The survival rate was 67%. Gelfoam loaded with 100 μg of recombinant periostin or with buffer were applied over the myocardial infarction at the time of surgery. […]

[4] = test system: primary neonatal rat ventricular cardiomyocytes; experiment: Cardiomyocyte apoptosis (TUNEL) and survival
Description: To determine cardiomyocyte proliferation, primary neonatal rat ventricular cardiomyocytes were quantified by counting with a hemocytometer after 3 days and 6 days of stimulation. To determine cardiomyocyte survival, primary neonatal rat ventricular cardiomyocytes were pre-treated with 500 ng/mL periostin or buffer for 30 min and then exposed to 0.5 μM doxycycline or 100 ng/mL TNFα for 24 hr and quantified by counting. Corresponding samples were stained with an antibody directed against tropomyosin as a cardiomyocyte marker to control for the percentage of differentiated cardiomyocytes. Apoptotic cardiomyocyte nuclei were determined after 24 hr with the In situ Cell Death Detection Kit (Roche, Indianapolis, Ind.) in combination with staining for troponin I.

[5] = H2B-GFP, after 6 days, 3 days BrdU labeling, stimulus not named in block (periostin section)

B1: periostin: Recombinant periostin, purified from HEK293 cells expressing the full-length human cDNA; secreted protein of 834 amino acids (Seq ID. No. 1) (protein, listed as Homo sapiens)
chain: MIPFLPMFSLLLLLIVNPINANNHYDKILAHSRIRGRDQGPNVCALQQILGTKKKYFSTCKNWYKKSICGQKTTVLYECCPGYMRMEGMKGCPAVLPIDHVYGTLGIVGATTTQRYSDASKLREEIEGKGSFTYFAPSNEAWDNLDSDIRRGLESNVNVELLNALHSHMINKRMLTKDLKNGMIIPSMYNNLGLFINHYPNGVVTVNCARIIHGNQIATNGVVHVIDRVLTQIGTSIQDFIEAEDDLSSFRAAAITSDILEALGRDGHFTLFAPTNEAFEKLPRGVLERFMGDKVASEALMKYHILNTLQCSESIMGGAVFETLEGNTIEIGCDGDSITVNGIKMVNKKDIVTNNGVIHLIDQVLIPDSAKQVIELAGKQQTTFTDLVAQLGLASALRPDGEYTLLAPVNNAFSDDTLSMVQRLLKLILQNHILKVKVGLNELYNGQILETIGGKQLRVFVYRTAVCIENSCMEKGSKQGRNGAIHIFREIIKPAEKSLHEKLKQDKRFSTFLSLLEAADLKELLTQPGDWTLFVPTNDAFKGMTSEEKEILIRDKNALQNIILYHLTPGVFIGKGFEPGVTNILKTTQGSKIFLKEVNDTLLVNELKSKESDIMTTNGVIHVVDKLLYPADTPVGNDQLLEILNKLIKYIQIKFVRGSTFKEIPVTVYTTKIITKVVEPKIKVIEGSLQPIIKTEGPTLTKVKIEGEPEFRLIKEGETITEVIHGEPIIKKYTKIIDGVPVEITEKETREERIITGPEIKYTRISTGGGETEETLKKLLQEEVTKVTKFIEGGDGHLFEDEEIKRLLQGDTPVRKLQANKKVQGSRRRLREGRSQ
DNA synthesis, of cardiomyocytes ([1]; 500 ng/mL, 3 days): 35±5% | increase of DNA synthesis over non-stimulated cardiomyocytes ([1]; 500 ng/mL, 3 days): 5 fold | increase of cardiomyocyte mitoses ([1]; 3 days): 12 fold | increase of cytokineses ([1]; 3 days): 8 fold | induction of cardiomyocyte DNA synthesis ([1]; FIG. 2d, 2e): stimulated DNA synthesis as effectively as FGF | EC50 ([1]; increasing concentrations of periostin (FIG. 2a), read-out: half-maximal stimulation of cardiomyocyte DNA synthesis): 155 ± 25 nM | increase of cardiomyocyte DNA synthesis ([2]; 9 days periostin 500 ng/mL, vs non-stimulated): 14 fold | cardiomyocyte DNA synthesis ([2]; 9 days stimulation (periostin 500 ng/mL, FGF 100 ng/mL), BrdU terminal 3 days): 1.1±0.2% | BrdU-positive binucleated cardiomyocytes [2, 5]: 0.2±0.03% | BrdU-positive mononucleated cardiomyocytes [2, 5]: 1.7±0.3% | start of periostin-induced cardiomyocyte DNA synthesis ([2]; time-course of stimulation): 3 days | presence of periostin in the left ventricle by immunoblotting [3]: confirmed presence | distance from the epicardium to the farthest diffusion range of periostin ([3]; epicardial Gelfoam patch): 461±62 | cardiomyocyte survival ([4]; 500 ng/mL pre-treatment, then doxorubicin or TNF-α 24 hr): not affected | doxorubicin or TNF-α-induced cardiomyocyte death ([4]; FIG. 2L): did not reduce | baseline and induced cardiomyocyte apoptosis ([4]; TUNEL, 24 hr): not affected
